Assay [1] concerns the target ClpP+C (E. coli ClpP C91V, C113A with a cysteine appended after Asn193) (E. coli). In words: cross-linking; E613CClpA‡ (4 µM) and ClpP+C (9.6 µM) mixed; 50 mM HEPES-KOH pH 7, 300 mM NaCl, 20 mM MgCl2, 10% glycerol, 5 mM EDTA; 5 mM ATPγS, 200 µM bismaleimidoethane (BMOE), room temperature, 45 min; quenched with 50 mM DTT; peak-1 pool of Superdex-200 SEC read by reducing SDS-PAGE (Coomassie).

Assay [2] has the same target. Put plainly: SEC; Superdex-200 of the quenched cross-linking reaction; 50 mM HEPES-KOH pH 7.5, 300 mM NaCl, 20 mM MgCl2, 10% glycerol, 2 mM TCEP; peak 2 = uncrosslinked ClpP+C.

The substance “E613C ClpA‡ (E. coli ClpAΔC9 with C47S, C203S, C243S and E613C) (from UniProt P0ABH9 1-749) (enzyme)” gave a percent of ClpA crosslinked to ClpP in assay [1] of 90%.

For orientation: stoichiometry N means a count of units in the complex or per binding partner. Regarding “ClpP+C (E. coli ClpP C91V, C113A with a cysteine appended after Asn193) (enzyme)”, in assay [2], the stoichiometry N was 14.
